Series [1] has as its target T1, IFNγ (human) (UniProt P01579).
T1 sequence: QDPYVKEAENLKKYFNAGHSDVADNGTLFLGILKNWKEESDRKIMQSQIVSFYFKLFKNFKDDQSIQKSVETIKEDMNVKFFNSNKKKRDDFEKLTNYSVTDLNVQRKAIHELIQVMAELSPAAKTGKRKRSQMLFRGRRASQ
Kind of series: SPR. Conditions: biotin-dT at T53, SPR: 1x PBS (1 mM KH2PO4, 3 mM Na2HPO4, 155 mM NaCl; 205 mM NaCl for IFNγ), pH 7.4, 0.05% Nonidet P-40, 25°C, EMSA: 1x PBS, 0.05% NP-40, 25°C, 25 nM DNA, 50 nM …. (In general: A gel shift assay detects complexes by their altered migration in electrophoresis.)

Series [2] deals with T1, IFNγ (human). The conditions noted are these: N28 and N39 = Ds; biotin-dT at T53; SPR: 1x PBS (1 mM KH2PO4, 3 mM Na2HPO4, 155 mM NaCl; 205 mM NaCl for IFNγ), pH 7.4, 0.05% Nonidet P-40, 25°C; EMSA: 1x PBS, 0.05% NP-40, 25°C, 25 nM DNA, 50 nM …; cited from earlier work.
In series [3] the test system is T2, VEGF165 (human), P15692-4.
T2 sequence: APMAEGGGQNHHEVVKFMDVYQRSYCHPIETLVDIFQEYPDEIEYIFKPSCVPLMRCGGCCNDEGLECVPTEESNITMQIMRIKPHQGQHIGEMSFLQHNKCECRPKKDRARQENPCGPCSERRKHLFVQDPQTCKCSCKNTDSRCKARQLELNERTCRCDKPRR
The series can be described thus: SPR. The conditions noted are these: biotin-dT at T54, SPR: 1x PBS (1 mM KH2PO4, 3 mM Na2HPO4, 155 mM NaCl; 205 mM NaCl for IFNγ), pH 7.4, 0.05% Nonidet P-40, 25°C, EMSA: 1x PBS, 0.05% NP-40, 25°C, 25 nM DNA, 50 nM ….

Series [4] deals with T2, VEGF165 (human), P15692-4. The conditions noted are these: N25 and N34 = Ds (7-(2-thienyl)imidazo[4,5-b]pyridine); biotin-dT at T54; SPR: 1x PBS (1 mM KH2PO4, 3 mM Na2HPO4, 155 mM NaCl; 205 mM NaCl for IFNγ), pH 7.4, 0.05% Nonidet P-40, 25°C; EMSA: 1x PBS, 0.05% NP-40, 25°C, 25 nM DNA, 50 nM …; cited from earlier work.

Read-outs that look alike come from different tables or passages of the source.

With “CCCGCCCGGGTCCGCGAAGCGGTAGGTATGGGCTAGGCAGCTGGCGGGCGCGTAGCG [I-Apt4 (AA)]”, in series [1], the Kd (usually the free concentration of one partner at which half of the binding sites on the other are occupied at equilibrium, for simple one-to-one binding) came out at 16 nM.
With “CCCGCCCGGGTCCGCGAAGCGGTAGGTNTGGGCTAGGCNGCTGGCGGGCGCGTAGCG [I-Apt1 (DD)]”, the Kd in series [1] (N28 and N39 = Ds) is 0.013 nM; in series [2] it was 0.033 nM.
In series [3], “GCGGTAAGCCGCGTCCGAAGGGGCATGCGGCGAACCCGAATGGGTCCGCCGCGTAGCG [V-Apt4 (AA)]” returned a Kd of 0.16 nM.
Take “GCGGTAAGCCGCGTCCGAAGGGGCATGCGGCGANCCCGAATGGGTCCGCCGCGTAGCG [V-Apt2 (AD)]”: in series [3] (N34 = Ds), the Kd was 0.002 nM.
In series [3] (N25 = Ds), “GCGGTAAGCCGCGTCCGAAGGGGCNTGCGGCGAACCCGAATGGGTCCGCCGCGTAGCG [V-Apt3 (DA)]” came in with a Kd of 0.058 nM.
For “GCGGTAAGCCGCGTCCGAAGGGGCNTGCGGCGANCCCGAATGGGTCCGCCGCGTAGCG [V-Apt1 (DD)]”, the Kd in series [3] (N25 and N34 = Ds (7-(2-thienyl)imidazo[4,5-b]pyridine)) is 0.0016 nM; in series [4] it was 1 pM.

(Values after PMC6895277.)
